In the experiment the target is human IFITM3 (untagged; interferon-induced transmembrane protein 3) (UniProt Q01628). Nature of the experiment: co-immunoprecipitation (anti-HA IP, anti-IFITM3 immunoblot, band ratio). To be noted: HEK293T co-transfected with pCMV-IFITM3 (0.50 μg) and pBJ-97ZA Nef-HA WT or mutant (0.25 μg); parent: 100. (Immunoblotting shows a protein as a band on a membrane.)
Sequence of UniProt Q01628 (Q01628 whole entry): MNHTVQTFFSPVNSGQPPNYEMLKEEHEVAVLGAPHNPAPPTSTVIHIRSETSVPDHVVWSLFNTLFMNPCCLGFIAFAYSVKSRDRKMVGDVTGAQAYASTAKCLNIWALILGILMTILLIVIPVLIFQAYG
Turning to “97ZA013 Nef-HA (HIV-1 clade C primary isolate), wild type E153K”, the percent of parent (% (IFITM3/HA ratio, WT = 100)) was 73. Under “97ZA013 Nef-HA (HIV-1 clade C primary isolate), wild type G2A” stands 1; under “97ZA013 Nef-HA (HIV-1 clade C primary isolate), wild type L164A; L165A”, 87; under “97ZA013 Nef-HA (HIV-1 clade C primary isolate), wild type M20A”, 124. On to “97ZA013 Nef-HA (HIV-1 clade C primary isolate), wild type M169V; Q171L”, for which the percent of parent (% (IFITM3/HA ratio, WT = 100)) turned out to be 244. Under “97ZA013 Nef-HA (HIV-1 clade C primary isolate), wild type N163T; C164S” stands 217. “97ZA013 Nef-HA (HIV-1 clade C primary isolate), wild type R17A; R19A; R21A; R22A”: the percent of parent (% (IFITM3/HA ratio, WT = 100)) was 16. On to “97ZA013 Nef-HA (HIV-1 clade C primary isolate), wild type R192F; R193H”, for which the percent of parent (% (IFITM3/HA ratio, WT = 100)) stood at 188. Consider “97ZA013 Nef-HA (HIV-1 clade C primary isolate), wild type S152D; E153K”, for which the percent of parent (% (IFITM3/HA ratio, WT = 100)) is 42.

Values taken from article doi:10.1101/2025.05.15.654345.
